Where a SMILES comes first, the peptide text is derived from it. Bridges are numbered along the chain shown (N, C = ends). Where no end group is shown, it is not given here. [ ]: non-standard residue; d: D form. Orn = NCCC[C@H](N)C(=O)O
T1: adenylyl cyclase, ROS 17/2 cells (Rattus norvegicus, UniProt P25961)
T1 sequence (P25961 27-591): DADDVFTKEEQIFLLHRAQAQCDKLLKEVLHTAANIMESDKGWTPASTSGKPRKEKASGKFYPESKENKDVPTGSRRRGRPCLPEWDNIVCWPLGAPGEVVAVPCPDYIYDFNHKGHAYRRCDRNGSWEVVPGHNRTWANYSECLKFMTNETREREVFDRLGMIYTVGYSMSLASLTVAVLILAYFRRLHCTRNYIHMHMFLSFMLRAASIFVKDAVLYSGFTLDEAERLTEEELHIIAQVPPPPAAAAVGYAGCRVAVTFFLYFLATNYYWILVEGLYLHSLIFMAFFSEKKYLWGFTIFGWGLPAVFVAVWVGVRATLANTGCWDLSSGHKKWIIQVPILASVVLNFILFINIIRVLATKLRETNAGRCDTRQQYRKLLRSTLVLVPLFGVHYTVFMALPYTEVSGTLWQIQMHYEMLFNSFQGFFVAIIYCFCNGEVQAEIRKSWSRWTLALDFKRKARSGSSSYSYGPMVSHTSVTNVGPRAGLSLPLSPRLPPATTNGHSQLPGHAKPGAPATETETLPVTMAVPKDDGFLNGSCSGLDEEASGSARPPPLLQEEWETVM


Key:
[1] = target: T1, adenylyl cyclase, ROS 17/2 cells; assay: Adenylyl cyclase stimulation, [3H]-cyclic AMP production in ROS 17/2 cells; assay type: cell-based; conditions: ROS 17/2 cells; concentration for half-maximal increase in AC activity; read-out: Adenylyl Cyclase (EC50)
PTH receptor = PTH receptor (rat (ROS 17/2 rat osteosarcoma cell …, UniProt P25961)); assay: cell-based or functional assay

Molecule	EC50 [1] [nM]	Adenylyl Cyclase (EC50) (PTH receptor) [nM]
CC[C@H](C)[C@H](NC(=O)[C@H](CCC(=O)O)NC(=O)[C@H](CO)NC(=O)[C@@H](NC(=O)[C@@H](N)CO)C(C)C)C(=O)N[C@@H](CCC(N)=O)C(=O)N[C@@H](CC(C)C)C(=O)N[C@@H](CCSC)C(=O)N[C@@H](Cc1c[nH]cn1)C(=O)N[C@@H](CC(N)=O)C(=O)N[C@@H](CC(C)C)C(=O)NCC(=O)N[C@@H](CCCCN)C(=O)N[C@@H](Cc1c[nH]cn1)C(=O)N[C@@H](CC(C)C)C(=O)N[C@@H](CC(N)=O)C(=O)N[C@@H](CO)C(=O)N[C@@H](CCSC)C(=O)N[C@@H](CCC(=O)O)C(=O)N[C@@H](CCCNC(=N)N)C(=O)N[C@H](C(=O)N[C@H]1CCC(=O)NCCCC[C@@H](C(=O)N[C@@H](C)C(=O)N[C@@H](CC(C)C)C(=O)N[C@@H](CCC(N)=O)C(=O)N[C@@H](CC(=O)O)C(=O)N[C@H](C(N)=O)C(C)C)NC(=O)[C@H](CCCNC(=N)N)NC(=O)[C@H](CC(C)C)NC(=O)[C@H](Cc2c[nH]c3ccccc23)NC1=O)C(C)C [[Ala^27]cyclo(Glu^22—Lys^26)—hPTH—(1-31)-NH2] (H-SVSEIQLMHNLGKHLNSMERVEWLRKALQDV-NH2; lactam 22-26; N-terminus assumed)	9	
SVSEIQLMHNLGKHLNSMERVEWLRKLLQD-NH2 (lactam 22-26; N-terminus assumed; SMILES CC[C@H](C)[C@H](NC(=O)[C@H](CCC(=O)O)NC(=O)[C@H](CO)NC(=O)[C@@H](NC(=O)[C@@H](N)CO)C(C)C)C(=O)N[C@@H](CCC(N)=O)C(=O)N[C@@H](CC(C)C)C(=O)N[C@@H](CCSC)C(=O)N[C@@H](Cc1c[nH]cn1)C(=O)N[C@@H](CC(N)=O)C(=O)N[C@@H](CC(C)C)C(=O)NCC(=O)N[C@@H](CCCCN)C(=O)N[C@@H](Cc1c[nH]cn1)C(=O)N[C@@H](CC(C)C)C(=O)N[C@@H](CC(N)=O)C(=O)N[C@@H](CO)C(=O)N[C@@H](CCSC)C(=O)N[C@@H](CCC(=O)O)C(=O)N[C@@H](CCCNC(=N)N)C(=O)N[C@H](C(=O)N[C@H]1CCC(=O)NCCCC[C@@H](C(=O)N[C@@H](CC(C)C)C(=O)N[C@@H](CC(C)C)C(=O)N[C@@H](CCC(N)=O)C(=O)N[C@@H](CC(=O)O)C(N)=O)NC(=O)[C@H](CCCNC(=N)N)NC(=O)[C@H](CC(C)C)NC(=O)[C@H](Cc2c[nH]c3ccccc23)NC1=O)C(C)C) [[Leu^27]cyclo(Glu^22-Lys^26)-hPTH-(1-30)-NH2]		20
SVSEIQLMHNLGKHLNSMERVEWLRKLLQDVHNF-OH (lactam 22-26; N-terminus assumed; SMILES CC[C@H](C)[C@H](NC(=O)[C@H](CCC(=O)O)NC(=O)[C@H](CO)NC(=O)[C@@H](NC(=O)[C@@H](N)CO)C(C)C)C(=O)N[C@@H](CCC(N)=O)C(=O)N[C@@H](CC(C)C)C(=O)N[C@@H](CCSC)C(=O)N[C@@H](Cc1c[nH]cn1)C(=O)N[C@@H](CC(N)=O)C(=O)N[C@@H](CC(C)C)C(=O)NCC(=O)N[C@@H](CCCCN)C(=O)N[C@@H](Cc1c[nH]cn1)C(=O)N[C@@H](CC(C)C)C(=O)N[C@@H](CC(N)=O)C(=O)N[C@@H](CO)C(=O)N[C@@H](CCSC)C(=O)N[C@@H](CCC(=O)O)C(=O)N[C@@H](CCCNC(=N)N)C(=O)N[C@H](C(=O)N[C@H]1CCC(=O)NCCCC[C@@H](C(=O)N[C@@H](CC(C)C)C(=O)N[C@@H](CC(C)C)C(=O)N[C@@H](CCC(N)=O)C(=O)N[C@@H](CC(=O)O)C(=O)N[C@H](C(=O)N[C@@H](Cc2c[nH]cn2)C(=O)N[C@@H](CC(N)=O)C(=O)N[C@@H](Cc2ccccc2)C(=O)O)C(C)C)NC(=O)[C@H](CCCNC(=N)N)NC(=O)[C@H](CC(C)C)NC(=O)[C@H](Cc2c[nH]c3ccccc23)NC1=O)C(C)C) [[Leu^27]cyclo(Glu^22-Lys^26)-hPTH-(1-34)-OH]		6
SVSEIQLMHNLGKHLNSMERVDWLR[Orn]LLQDV-NH2 (lactam 22-26; N-terminus assumed; SMILES CC[C@H](C)[C@H](NC(=O)[C@H](CCC(=O)O)NC(=O)[C@H](CO)NC(=O)[C@@H](NC(=O)[C@@H](N)CO)C(C)C)C(=O)N[C@@H](CCC(N)=O)C(=O)N[C@@H](CC(C)C)C(=O)N[C@@H](CCSC)C(=O)N[C@@H](Cc1c[nH]cn1)C(=O)N[C@@H](CC(N)=O)C(=O)N[C@@H](CC(C)C)C(=O)NCC(=O)N[C@@H](CCCCN)C(=O)N[C@@H](Cc1c[nH]cn1)C(=O)N[C@@H](CC(C)C)C(=O)N[C@@H](CC(N)=O)C(=O)N[C@@H](CO)C(=O)N[C@@H](CCSC)C(=O)N[C@@H](CCC(=O)O)C(=O)N[C@@H](CCCNC(=N)N)C(=O)N[C@H](C(=O)N[C@H]1CC(=O)NCCC[C@@H](C(=O)N[C@@H](CC(C)C)C(=O)N[C@@H](CC(C)C)C(=O)N[C@@H](CCC(N)=O)C(=O)N[C@@H](CC(=O)O)C(=O)N[C@H](C(N)=O)C(C)C)NC(=O)[C@H](CCCNC(=N)N)NC(=O)[C@H](CC(C)C)NC(=O)[C@H](Cc2c[nH]c3ccccc23)NC1=O)C(C)C) [[Leu^27]cyclo(Asp^22-Orn^26)-hPTH-(1-31)-NH2]		> 200
SVSEIQLMHNLGKHLNSMERVEWLRKLLQDV-OH (lactam 22-26) [[Leu^27]cyclo(Glu^22-Lys^26)-hPTH-(1-31)-OH]		7
SVSEIQLMHNLGKHLNSMERVCWLRCLLQDV-NH2 (disulfide 22-26; N-terminus assumed; SMILES CC[C@H](C)[C@H](NC(=O)[C@H](CCC(=O)O)NC(=O)[C@H](CO)NC(=O)[C@@H](NC(=O)[C@@H](N)CO)C(C)C)C(=O)N[C@@H](CCC(N)=O)C(=O)N[C@@H](CC(C)C)C(=O)N[C@@H](CCSC)C(=O)N[C@@H](Cc1c[nH]cn1)C(=O)N[C@@H](CC(N)=O)C(=O)N[C@@H](CC(C)C)C(=O)NCC(=O)N[C@@H](CCCCN)C(=O)N[C@@H](Cc1c[nH]cn1)C(=O)N[C@@H](CC(C)C)C(=O)N[C@@H](CC(N)=O)C(=O)N[C@@H](CO)C(=O)N[C@@H](CCSC)C(=O)N[C@@H](CCC(=O)O)C(=O)N[C@@H](CCCNC(=N)N)C(=O)N[C@H](C(=O)N[C@H]1CSSC[C@@H](C(=O)N[C@@H](CC(C)C)C(=O)N[C@@H](CC(C)C)C(=O)N[C@@H](CCC(N)=O)C(=O)N[C@@H](CC(=O)O)C(=O)N[C@H](C(N)=O)C(C)C)NC(=O)[C@H](CCCNC(=N)N)NC(=O)[C@H](CC(C)C)NC(=O)[C@H](Cc2c[nH]c3ccccc23)NC1=O)C(C)C) [[Cys^22, Cys^26, Leu^27]cyclo(Cys^22-Cys^26)-hPTH-(1-31)-NH2]		16
SVSEIQLMHNLGKHLNSMERVEWLRCLLQCV-NH2 (disulfide 26-30; N-terminus assumed; SMILES CC[C@H](C)[C@H](NC(=O)[C@H](CCC(=O)O)NC(=O)[C@H](CO)NC(=O)[C@@H](NC(=O)[C@@H](N)CO)C(C)C)C(=O)N[C@@H](CCC(N)=O)C(=O)N[C@@H](CC(C)C)C(=O)N[C@@H](CCSC)C(=O)N[C@@H](Cc1c[nH]cn1)C(=O)N[C@@H](CC(N)=O)C(=O)N[C@@H](CC(C)C)C(=O)NCC(=O)N[C@@H](CCCCN)C(=O)N[C@@H](Cc1c[nH]cn1)C(=O)N[C@@H](CC(C)C)C(=O)N[C@@H](CC(N)=O)C(=O)N[C@@H](CO)C(=O)N[C@@H](CCSC)C(=O)N[C@@H](CCC(=O)O)C(=O)N[C@@H](CCCNC(=N)N)C(=O)N[C@H](C(=O)N[C@@H](CCC(=O)O)C(=O)N[C@@H](Cc1c[nH]c2ccccc12)C(=O)N[C@@H](CC(C)C)C(=O)N[C@@H](CCCNC(=N)N)C(=O)N[C@H]1CSSC[C@@H](C(=O)N[C@H](C(N)=O)C(C)C)NC(=O)[C@H](CCC(N)=O)NC(=O)[C@H](CC(C)C)NC(=O)[C@H](CC(C)C)NC1=O)C(C)C) [[Cys^26, Cys^30, Leu^27]cyclo(Cys^26-Cys^30)-hPTH-(1-31)-NH2]		24
SVSEIQLMHNLGKHLNSMERVKWLRELLQDV-NH2 (lactam 22-26; N-terminus assumed; SMILES CC[C@H](C)[C@H](NC(=O)[C@H](CCC(=O)O)NC(=O)[C@H](CO)NC(=O)[C@@H](NC(=O)[C@@H](N)CO)C(C)C)C(=O)N[C@@H](CCC(N)=O)C(=O)N[C@@H](CC(C)C)C(=O)N[C@@H](CCSC)C(=O)N[C@@H](Cc1c[nH]cn1)C(=O)N[C@@H](CC(N)=O)C(=O)N[C@@H](CC(C)C)C(=O)NCC(=O)N[C@@H](CCCCN)C(=O)N[C@@H](Cc1c[nH]cn1)C(=O)N[C@@H](CC(C)C)C(=O)N[C@@H](CC(N)=O)C(=O)N[C@@H](CO)C(=O)N[C@@H](CCSC)C(=O)N[C@@H](CCC(=O)O)C(=O)N[C@@H](CCCNC(=N)N)C(=O)N[C@H](C(=O)N[C@H]1CCCCNC(=O)CC[C@@H](C(=O)N[C@@H](CC(C)C)C(=O)N[C@@H](CC(C)C)C(=O)N[C@@H](CCC(N)=O)C(=O)N[C@@H](CC(=O)O)C(=O)N[C@H](C(N)=O)C(C)C)NC(=O)[C@H](CCCNC(=N)N)NC(=O)[C@H](CC(C)C)NC(=O)[C@H](Cc2c[nH]c3ccccc23)NC1=O)C(C)C) [[Leu^27]cyclo(Lys^22-Glu^26)-hPTH-(1-31)-NH2]		4
